Reference: US20090035266A1

Molecular target: HLA-A2 molecules on T2 cells (human)
Test: T2 cell HLA-A2 upregulation assay, flow cytometry, peptide 25 µg/ml; negative control
Conditions: remark: other sources report otherwise

- T2 binding (MFI): 260 MFI
Binder: HLFGYSWYK [CAP-7 peptide]
